Reference: the supplement of paper PMC7877785
± gives the uncertainty stated by the source.

Assay: self-splicing fitness, log relative to wild type (ln ratio); higher = more splicing; Tetrahymena group I intron in knt gene, E. coli kanamycin selection, DiMSum; sequences stand for … in CUCUCU…GGAGGGAAAAGUUAUCAGGCAUGCACCUGGUAGCUAGUCUUUAAACCAAUAGAUUGCAUCGGUUUAAAAGGCAAGACCGUCAAAUUGCGGGAAAGGGGUCAACAGCCGUUCAGUACCAAGUCUCAGGGGAAACUUUGAGAUGGCCUUGCAAAGGGUAUGGUAAUAAGCUGACGGACAUGGUCCUAACCACGCAGCCAAGUCCUAAGUCAACAGAUCUUCUGUUGAUAUGGAUGCAGUUCACAGACUAAAUGUCGGUCGGGGAAGAUGUAUUCUUCUCAUAAGAUAUAGUCGGACCUCUCCUUAAUGGGAGCUAGCGGAUGAAGUGAUGCAACACUGGAGCCGCUGGGAACUAAUUUGUAUGCGAAAGUAUAUUGAUUAGUUUUGGAGUACUCGUGGUCG
Method in brief: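 Six replicate transformations of E. coli BL21(DE3) with a pET-22b(+) library were grown overnight at 37°C or 30°C. The library randomised all eight P1ex-region intron nucleotides, the intron lying in the knt kanamycin-resistance gene, and plates were LB agar with or without 25 μg/mL kanamycin plus 100 μg/mL carbenicillin, 50 μM IPTG and 0.2% rhamnose. Pooled colonies were amplicon-sequenced on an Illumina HiSeq 2500, and fitness is the DiMSum error-weighted combination of wild-type-normalised replicate fold changes, kanamycin versus none.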

Row | Sequence | self-splicing fitness (ln) (30 °C) | self-splicing fitness (ln) (37 °C)
1 | CACAAGCAAUAUUACGCGAU | -3.57 ± 0.15 | -3.18 ± 0.19
2 | CCAAAGCAAUAUUACGAGCG | -0.496 ± 0.069 | -0.161 ± 0.1
3 | GGAGAGCAAUAUUACGGGCC | -2.35 ± 0.33 | 
4 | GUGCAGCAAUAUUACGGUUU | -0.309 ± 0.062 | -0.000827 ± 0.076
5 | GUGUAGCAAUAUUACGGAAU | -1.42 ± 0.13 | -1.64 ± 0.25
6 | UUUUAGCAAUAUUACGGAAU |  | -2.48 ± 0.4
7 | AGCUAGCAAUAUUACGAUUC | -1.8 ± 0.11 | -0.417 ± 0.15
8 | GGUCAGCAAUAUUACGGCGU | 0.348 ± 0.11 | 0.0889 ± 0.12
9 | UUGCAGCAAUAUUACGCACU | -1.6 ± 0.13 | -1.15 ± 0.13
10 | CACAAGCAAUAUUACGCCGU | -2.15 ± 0.23 | -2.36 ± 0.26
11 | AUAUAGCAAUAUUACGAUCA | -1.4 ± 0.16 | -0.365 ± 0.22
12 | GAACAGCAAUAUUACGAUGU | -1.05 ± 0.043 | -0.336 ± 0.06
13 | UAAUAGCAAUAUUACGUUCC |  | -1.52 ± 0.48
14 | ACCGAGCAAUAUUACGCGGA | -2.09 ± 0.1 | -0.721 ± 0.089
15 | AUGUAGCAAUAUUACGCUUG | -1.06 ± 0.14 | -0.51 ± 0.15
16 | CUGAAGCAAUAUUACGCUGC | -2.12 ± 0.34 | 
17 | CUAAAGCAAUAUUACGUGGA | -3.7 ± 0.2 | -2.64 ± 0.19
18 | AUCCAGCAAUAUUACGGCGU | -0.0553 ± 0.058 | 0.269 ± 0.07

Row | Sequence | self-splicing fitness (ln) (30 °C) | self-splicing fitness (ln) (37 °C)
19 | UGUCAGCAAUAUUACGGUCC | -0.381 ± 0.15 | -0.567 ± 0.19
20 | AACAAGCAAUAUUACGGUAG | -3.81 ± 0.2 | -2.22 ± 0.13
21 | UGUAAGCAAUAUUACGGACA | -0.174 ± 0.16 | 0.153 ± 0.23
22 | AAUAAGCAAUAUUACGCUAG | -1.79 ± 0.18 | -1.17 ± 0.17
23 | UUAUAGCAAUAUUACGAGCU |  | -2.16 ± 0.26
24 | CUAAAGCAAUAUUACGCCGU | -3.75 ± 0.27 | -2.39 ± 0.25
25 | ACACAGCAAUAUUACGCCGC | -3.21 ± 0.34 | -1.68 ± 0.16
26 | GGCGAGCAAUAUUACGUAGA | -2.07 ± 0.093 | -1.27 ± 0.12
27 | GCGCAGCAAUAUUACGGCAA | -0.734 ± 0.14 | -0.814 ± 0.14
28 | AUAAAGCAAUAUUACGGGGC | -3.6 ± 0.26 | -1.97 ± 0.22
29 | UCAUAGCAAUAUUACGUCUG | -1.16 ± 0.081 | -0.895 ± 0.1
30 | UAGUAGCAAUAUUACGACAG | -2.01 ± 0.3 | -1.18 ± 0.37
31 | CCCCAGCAAUAUUACGGAAC | -3.83 ± 0.26 | -3.1 ± 0.22
32 | CAGGAGCAAUAUUACGUACA | -2.55 ± 0.49 | -1.73 ± 0.42
33 | AGUGAGCAAUAUUACGGCGG | -1.83 ± 0.31 | -2.29 ± 0.26
34 | GAUGAGCAAUAUUACGUGUC | -3.53 ± 0.31 | 
35 | CUCGAGCAAUAUUACGGGCA | -2.35 ± 0.36 | 0.194 ± 0.26
